This note sets out measurements from paper PMC2034474.

For this data set, the system named is HIS-GST-cERCC1 (ERCC1 central domain) (Homo sapiens). The experiment in a line: EMSA. (A gel shift assay detects complexes by their altered migration in electrophoresis.)

Substance “b10 (bubble10, dsDNA with 10 unpaired bases)” registered a dissociation constant (Kd) of 2.5 µM.

As usually defined, the Kd is a measure of binding affinity in units of concentration. A lower Kd goes with a tighter complex.
